Data set [1] deals with His-NHR (Streptomyces actuosus, UniProt P52391 1-274). Kind of data set: fluorescence anisotropy; 5 mM Mg2+; Anisotropy: 25 mM HEPES-KOH pH 7.5, 25 mM NH4Cl, 5 mM MgCl2, 5 mM DTT, 2.5 uM RNA, 0-8 uM NHR, temperature not stated; EMSA: 25 mM HEPES-KOH pH 8.0, 25 mM NH4Cl, 5 mM MgCl2, 5 mM DTT, 4 C, 1 h, 6-10 uM RNA. The following applies: protein: recombinant, tags: N-terminal His6 (pET-28a), chain copies: 2.

Data set [2] concerns the target HA-His-NHR-R135A (His-NHR-M) (Streptomyces actuosus, UniProt P52391 1-274, R135A). Kind of data set: EMSA; 5 mM Mg2+; R135A homodimer, less efficient than heterodimer; Anisotropy: 25 mM HEPES-KOH pH 7.5, 25 mM NH4Cl, 5 mM MgCl2, 5 mM DTT, 2.5 uM RNA, 0-8 uM NHR, temperature not stated; EMSA: 25 mM HEPES-KOH pH 8.0, 25 mM NH4Cl, 5 mM MgCl2, 5 mM DTT, 4 C, 1 h, 6-10 uM RNA. The conditions noted are these: protein: recombinant; tags: HA, N-terminal His6; chain copies: 2; label: 3' fluorescein (anisotropy); none (EMSA, SYBR Gold); hairpin. (In general: A gel shift assay detects complexes by their altered migration in electrophoresis.)

The target in data set [3] is HA-His-NHR-R135A subunit of heterodimer;Flag-Trx-NHR subunit of heterodimer (Streptomyces actuosus;Streptomyces …, UniProt P52391;P52391 1-274;1-274, R135A|). The data set can be described thus: EMSA; 5 mM Mg2+; WT/R135A heterodimer, more efficient than R135A homodimer; Anisotropy: 25 mM HEPES-KOH pH 7.5, 25 mM NH4Cl, 5 mM MgCl2, 5 mM DTT, 2.5 uM RNA, 0-8 uM NHR, temperature not stated; EMSA: 25 mM HEPES-KOH pH 8.0, 25 mM NH4Cl, 5 mM MgCl2, 5 mM DTT, 4 C, 1 h, 6-10 uM RNA. The following applies: protein: recombinant;recombinant, tags: HA, N-terminal His6;Flag, thioredoxin, copies: 1;1, label: 3' fluorescein (anisotropy), none (EMSA, SYBR Gold), hairpin.

The mark [4] stands for this setting: label: 3' fluorescein, folded single strand.

As a reminder, the Kd is a measure of binding affinity in units of concentration.

B1: 29 nt RNA A1067U (structured_RNA)
RNA: GGAUGUUGGCUUUGAAGCAGCCAUCAUUU
With B1, in data set [1] (label: 3' fluorescein, hairpin), the dissociation constant (Kd) worked out at 630 ± 80 nM.

B2: 29 nt RNA wt A1067 (structured_RNA)
RNA: GGAUGUUGGCUUAGAAGCAGCCAUCAUUU
Regarding B2, the binding result in data set [2] and in data set [3] was “binds” throughout. Also, the dissociation constant (Kd) in data set [1] (label: 3' fluorescein (anisotropy), none (EMSA, SYBR Gold), hairpin) is 370 ± 30 nM.

B3: 58 nt RNA A1067G (structured_RNA)
RNA: GGCCAGGAUGUUGGCUUGGAAGCAGCCAUCAUUUAAAGAAAGCGUAAUAGCUCACUGGCU
In the case of B3, the Kd in data set [1] (setting [4]) turned out to be 770 ± 20 nM.

B4: 58 nt RNA A1067U (structured_RNA)
RNA: GGCCAGGAUGUUGGCUUUGAAGCAGCCAUCAUUUAAAGAAAGCGUAAUAGCUCACUGGCU
B4: in data set [1] (setting [4]), the Kd is 910 ± 20 nM.

B5: 58 nt RNA A1067C (structured_RNA)
RNA: GGCCAGGAUGUUGGCUUCGAAGCAGCCAUCAUUUAAAGAAAGCGUAAUAGCUCACUGGCU
Turning to B5, the dissociation constant Kd in data set [1] (setting [4]) came out at 800 ± 20 nM.

B6: 29 nt RNA A1067G (structured_RNA)
RNA: GGAUGUUGGCUUGGAAGCAGCCAUCAUUU
Take B6: in data set [1] (label: 3' fluorescein, hairpin), the Kd was determined as 370 ± 30 nM.

B7: 29 nt RNA A1067C (structured_RNA)
RNA: GGAUGUUGGCUUCGAAGCAGCCAUCAUUU
Regarding B7, in data set [1] (label: 3' fluorescein, hairpin), the Kd came out at 460 ± 40 nM.

The record behind these values is PMC4409310, “Substrate Recognition and Modification by the Nosiheptide Resistance Methyltransferase”.
